From the RNAGym collection of RNA variant scans (doi:10.7554/elife.80360)

B1: Hairpin Ribozyme (parent)
chain: GUCCUCUUUCACGUGCGCGUGAAAGAGAGAAGUGAACCAGAGAAACACACGUUGUGGUAUAUUACCUGGUA

Variants of: B1
Assay: self-cleavage, relative activity (ratio to wild type); higher = more cleavage; co-transcriptional

Row | Variant | self-cleavage
1 | GUCCUCUUUCACGUGCGCGUGAAAGAGAGAAGUGAUCCAGAGAAACACACGUUGUGGUAUAUUACCUGGUA | 0.602
2 | GUCCUCUUUCACGUGCGCGUAAAAGAGAGAAGUGAACCAGAGAAACACAUGUUGUGGUAUAUUACCUGGUA | 0.371
3 | GUCCUCUUUCACGUGCGCGUUAAAGAGAGAAGUGAACCAGAGAAACACACGUUGUGGUAUAUUACCUAGUA | 0.237
4 | GUCCUCUUUCACGUGCGCGUGAAAGAAAGAAGUGAACCAGAGAAACACACGUUGUGGUAUAUUACCUGGAA | 0.426
5 | GUCCUCUUUCACGUGCGCGUGAAAGAGAGAAGUGAACCAGGGAAACACACGUUGUGGUAUAUUACCUGUUA | 0.42
6 | GUCCUCUUUCACGUGCGCGUGAAAGUGAAAAGUGAACCAGAGAAACACACGUUGUGGUAUAUUACCUGGUA | 0.198
7 | GUCCUCUUUCACGUGCGCGUGAAAGAGAGAAGUGAACAAGAGAAACACACGUUGUAGUAUAUUACCUGGUA | 0.178
8 | GUCCUCUUUCACGUGCGCCUGAAAGAGACAAGUGAACCAGAGAAACACACGUUGUGGUAUAUUACCUGGUA | 0.111
9 | GUCCUCUUUCACAUGCGCGUGAAAGAGAGAAGUGAACCAGAGAAACACACGUUGUGGUAUAUGACCUGGUA | 0.0786
10 | GUCCUCUUUCACGUGCGCGUGAAAGAGAGAAGAGAACCAGAGAAACACACGUUGUGGUAUAUGACCUGGUA | 0.27
11 | GUCCUCUUUCACGUGCGCGUGAAAGAGAGAAUUGAACCAGAGAAACAAACGUUGUGGUAUAUUACCUGGUA | 0.0918
12 | GUCCUGUUUCACGUGCGCGUGAAAGAGAGAAGUGAACCAGAGAAACACACGUUGUGGUAUACUACCUGGUA | 0.116
13 | GUCCUCUUUCACGUGCGCGUGAAAGAGAGAAGUGAAACAGAGAAAUACACGUUGUGGUAUAUUACCUGGUA | 0.0922
14 | GUCCUCUUUCACGUGCGCGUGAAAGAGAGAAGUGAACCAAAGAAACACACGUUGUGGUAUAUUAGCUGGUA | 0.0639
15 | GUCCUCUUUCACGUGCGCGUGAAAGAGAUAAGUGAACCAGAGAAACACACGUUGUCGUAUAUUACCUGGUA | 0.162
16 | GUCCUCUUUCAUGUGCGCGUGAAAGAGAGAAGUGAACCAGAGAAACACACGUUGUGGUACAUUACCUGGUA | 1.02
17 | CUCCUCUUCCACGUGCGCGUGAAAGAGAGAAGUGAACCAGAGAAACACACGUUGUGGUAUAUUACCUGGUA | 0.198
18 | GUCCUCUUUCACGUGCGCGUGAAAGAGCGAAGUGAACCAGAGAAACACACGUUGUGGUAUAUUACCAGGUA | 0.135
19 | GUCCUCUUUCACGUGCGCGUGAAAGAGAGAAGUGAACCAGAGAAACACACGUUGUGGUAAAAUACCUGGUA | 0.0542
20 | GUCCUCUUUCACGUGCGCGUGAAAGAGAGAAGUGAAGCAGAGAAAUACACGUUGUGGUAUAUUACCUGGUA | 0.122
21 | GUCCUCUUUCACGUACGCGUGAAAGAGAGAAGUGAACCAGAGAAACACACGGUGUGGUAUAUUACCUGGUA | 0.641
22 | GUCCUCUUUCACGGGCGCGUGAAAGAGAGAAGCGAACCAGAGAAACACACGUUGUGGUAUAUUACCUGGUA | 0.0267
23 | GUCCUCUUUCACGUGCGAGUGAAAGAGAGAAGUGAACCAGAGAAACACACGUUGUGGUGUAUUACCUGGUA | 0.272
24 | GUCCUCUUUCAUGUGCGCGUGAAAGAGAGAAGUGAACCAGAGAAACACCCGUUGUGGUAUAUUACCUGGUA | 0.169
25 | GUCCUCUUUCACGUGCGCGUGAAAGAGAGAAGUGACCCAGAGAAACCCACGUUGUGGUAUAUUACCUGGUA | 0.262
26 | GUCAUCUUUCACGUGCGCGUGAAAGAGAGAAGUGAACCAGAGAAACACACGUUGUGGUAUAUUACCUGGCA | 0.119

Row | Variant | self-cleavage
27 | GUCCUCUUUCACGUGCGCGUCAAAGAGAGAAGUGAACCAGAGAAACACACGUUGUGGUAUAGUACCUGGUA | 0.216
28 | GUCCUCUUUCACGUGCGCGUGAAAGAGACUAGUGAACCAGAGAAACACACGUUGUGGUAUAUUACCUGGUA | 0.0915
29 | GUCCUCUUUCACGUGCGCUUGAAAGAGAGAAGUGAACCAGAGAAACUCACGUUGUGGUAUAUUACCUGGUA | 0.211
30 | GUCCUCUUUCACCUGCGCGUGAAAGAGAGAAGUGAACCAGAGAAACACACGUUGUGGUAUAUUUCCUGGUA | 0.128
31 | GUCCUCUUUCACGUGCGCGUGAAAGAGAGAAGUGAACCAGAGAAACACAUGUUGUGGUAUAUUACCUGGUA | 0.396
32 | GUCCACUUUCACGUGCGCGUGAAAGAGAGAUGUGAACCAGAGAAACACACGUUGUGGUAUAUUACCUGGUA | 0.14
33 | GUCCUCUUUCACGUGCACGUGAAAGAGAUAAGUGAACCAGAGAAACACACGUUGUGGUAUAUUACCUGGUA | 0.113
34 | GUCCUCUUUCACGUGCGUGUGAAAGAGAGAAGUGAACCAGAGUAACACACGUUGUGGUAUAUUACCUGGUA | 0.102
35 | GUCCUCUCUCACGUGCGCGUGAAAGAGAGAAGUGAACCAGAGAAACGCACGUUGUGGUAUAUUACCUGGUA | 0.147
36 | GUCCUCUUUCACGUGCGCGUGAAAGAGAGAAGUGAACCAGAGAAACACACGUUGUGGUAUACUACGUGGUA | 0.213
37 | GUCCUCUUACACGUGCGCGUGAAAGAGAGAAGAGAACCAGAGAAACACACGUUGUGGUAUAUUACCUGGUA | 0.0178
38 | GUCCUCUUUCACGUGCGCGUGAAAGAGAGAAGUGAACCAGAGAAACACACGUUGUGUGAUAUUACCUGGUA | 0.0777
39 | GUCCUCUUUCACGUGCGCGUGAAAGAGAGAAGUGAACCAGUGAAACACCCGUUGUGGUAUAUUACCUGGUA | 0.238
40 | GUCCUCUUUCACGUGCGCGUGAAAGAGAGAAGUGAACCAGAGAAACACACGUUGUGGUAUAUUUCCGGGUA | 0.13
41 | GUCCUCUUUCACGUGCGCGUUAUAGAGAGAAGUGAACCAGAGAAACACACGUUGUGGUAUAUUACCUGGUA | 0.754
42 | GUCCUCUUUCACGUGCGCGUGAAAGAGAGAAGUGAACCAGUGAAACACACGUUGUUGUAUAUUACCUGGUA | 0.125
43 | GUCCUCUUUCACGUGCGCGAGAAAGAGAGAAGUGAACCAGAGAAACACACGUUGUGGUAUAUUACCAGGUA | 0.217
44 | GUCCUCUUUCACGUGCGCCUGAAAGAGAGAAGUGAACCAGAGAAACACACGUUCUGGUAUAUUACCUGGUA | 0.406
45 | GUCCUCUUUCACGUGCGCGUGAAAGAGAGAAGUGCACCAGAGAAACACACGUUGUGGUAUAAUACCUGGUA | 0.226
46 | GUCCUCUUUCACGUGCGCGUGAAAGAGAGAAUUGAACCAGAGAAACACUCGUUGUGGUAUAUUACCUGGUA | 0.0712
47 | GUCCUGUUUCACGUGCGCGUCAAAGAGAGAAGUGAACCAGAGAAACACACGUUGUGGUAUAUUACCUGGUA | 0.125
48 | GUCCCCUUUCACGUGCGCGUGAAAGAGAGAAGUGAACCAGAUAAACACACGUUGUGGUAUAUUACCUGGUA | 0.164
49 | GUCCUCUUUCACGUGCGCCUGAAGGAGAGAAGUGAACCAGAGAAACACACGUUGUGGUAUAUUACCUGGUA | 0.889
50 | GUCCUCUUUCACGUGCGCGUGAAAGAGAGAAGUGAACCAGAGAAACACACGUUUUGGGAUAUUACCUGGUA | 0.401
51 | GUCCUCUUUCACGUGCACGUGAAAGAGAGAAGUGAACCAGAGAAACACACGUUGUAGUAUAUUACCUGGUA | 0.142
52 | GUCCUCUUUCACGUGCGCGUUAAAGAGAGAAGUGAACCAGAGAAACGCACGUUGUGGUAUAUUACCUGGUA | 0.208

Row | Variant | self-cleavage
53 | GUCCUCUUUCACGUGCGCGUGAAAGAGAGAGGUGAACCAGAGAAACACACGUUGUGGUAUAUUCCCUGGUA | 0.0777
54 | GUCCUCUUUCACGUGCGCGUGAAAGAGAGAAGUGAACCAGACAAACACACUUUGUGGUAUAUUACCUGGUA | 0.448
55 | GUCCUCUUUCACGUGCGCGUGAAAGAGAGAAGUGAACCUGAGAAACACACGUUGUGGUAUAUUACCUGGUU | 0.19
56 | GCCCUCUUUCACGUGCGCGUGAAAGAGAGAAGUGUACCAGAGAAACACACGUUGUGGUAUAUUACCUGGUA | 0.259
57 | GUCCUCUUUCACGUGCGCGUGAAGGAGAGAAGUGAACCAGAGAAACACACGUUGUGUUAUAUUACCUGGUA | 0.307
58 | GACCUCCUUCACGUGCGCGUGAAAGAGAGAAGUGAACCAGAGAAACACACGUUGUGGUAUAUUACCUGGUA | 0.273
59 | GUCCUCUUUCACGUGCGCGUGAAAGAGAGAAGUGAACCAGAGAGACACACGUUGUAGUAUAUUACCUGGUA | 0.191
60 | GUCCUCUUUCACGUGCGCGUGAAAGAGAGAAGCGAACCGGAGAAACACACGUUGUGGUAUAUUACCUGGUA | 0.134
61 | GUCCUCUUUCACGUGCGCGUGAAAGACAGAAGUGAACCAGAGAAACACCCGUUGUGGUAUAUUACCUGGUA | 0.203
62 | GCCCUCUUUCACGUGCGCGUGAAAGAGAGAAGCGAACCAGAGAAACACACGUUGUGGUAUAUUACCUGGUA | 0.223
63 | GUCCUCUUUCACGUGCGCGUGAAAGAGAGAAGUGAACCUGAGAAACACACGUUGUUGUAUAUUACCUGGUA | 0.189
64 | GUCCUCUUUCACGUGCGCGUGAAAGAGAGAAGUGUACCAGAGAAACACACGUAGUGGUAUAUUACCUGGUA | 0.785
65 | GUCCUCUUUCACGUGCACGUGAAAGAGAGAAGUGAACCAGAGAAACACACGUUGUGGUAUAUUACCUGGUC | 1.37
66 | GUCCUCUUUCACGUGCGCGUGAUAGACAGAAGUGAACCAGAGAAACACACGUUGUGGUAUAUUACCUGGUA | 0.148
67 | GUCCUCUUUCACGUGCGCGUGAAAGAGAGAAGUGAACCAGACAAACACACGUUGUGGUAUAUUACCUGCUA | 0.145
68 | GUCCUCUUUCACGUGAGCGUGAAAGAGAGAAGUGAACCAGAGAAACACACGUUGUGGUAUGUUACCUGGUA | 0.203
69 | GUCCUCUUUCACGUGCGCGUGAAAGACCGAAGUGAACCAGAGAAACACACGUUGUGGUAUAUUACCUGGUA | 0.164
70 | GUCCUCUUUCACGUGCUCGUGAAAGAGAGAAGUGAACCAGAGAAACACACGUUGUGGUAUAUCACCUGGUA | 0.164
71 | GUCCUCUUUCACGUGCGCUUGAAAGAGAGAAGAGAACCAGAGAAACACACGUUGUGGUAUAUUACCUGGUA | 0.237
72 | GUCCUCUUUCACGUACGCGUGAAAGAGAGAAGUGAACCAGUGAAACACACGUUGUGGUAUAUUACCUGGUA | 1.26
73 | GUCCUCUUUCACGUGCGCGUGAAAGAGAGAAGUGAACCAGAGAAACACACGUUGUGGCAUAUUACCGGGUA | 0.241
74 | GUCCUCUUUCACGUGCGCGUGAAAGCGAGAAGUGAACUAGAGAAACACACGUUGUGGUAUAUUACCUGGUA | 0.416
75 | GUCCUGUUUCACGUGCGCGUGAAAGAAAGAAGUGAACCAGAGAAACACACGUUGUGGUAUAUUACCUGGUA | 0.135
76 | GUCCUCUUUCACGUGCGCCUGAAAGAGAGAAGUGAACCAGAGAAACGCACGUUGUGGUAUAUUACCUGGUA | 0.277
